In assay [1] the target is T1, hRYKWD.Fc (human, UniProt P34925 66-194, limits assumed).
T1 construct: domain: WIF domain; also called hRYKWD.Fc.FLAG; fusion protein containing the human RYK WIF domain; not shown: Fc region of human IgG1
Briefly: SPRi (ProteOn XPR36, GLC chip), RWD1 immobilized, hRYKWD.Fc injected at 31.25-500 nM, 25 °C; calculated from ka and kd. The procedure: (§1) RYK binding was determined by ELISA as described previously (Davydova N, et al., 2011, J Mol Biol 407: 581-593), using bound RWD1 and probed with purified hRYK.Fc. All SPRi analyses were performed at 25° C. using HBST (10 mM HEPES, pH 7.4, 150 mM NaCl, 0.05% (v/v) Tween-20) as the running buffer. A ProteOn XPR36 SPRi biosensor, GLC sensor chips and coupling reagents (10 mM sodium acetate, pH 4.5; sulfo-N-hydroxysuccinimide (SNHS); 1-ethyl-3-(3-dimethylaminopropyl)-carbodiimide hydrochloride (EDC); and ethanolamine) were purchased from Bio-Rad Laboratories. All antibodies and ligands used for kinetic analysis were buffer exchanged with PBS. Immobilizations were performed at 30 μl/min on the GLC chip. Prior to immobilization, chips were preconditioned with two sequential 10 sec pulses of 50 mM NaOH, 100 mM HCl and 0.5% SDS, followed by equilibration with HBST. For surface activation, 0.4 M EDC and 0.1 M SNHS were each diluted 50-fold in water and mixed together to give a final composition of 8 mM EDC in 2 mM SNHS. Separate vertical channels were activated with 150 μl of the EDC/SNHS mixture. IgGs for immobilization (RWD1 antibody and normal human IgG (R&D Systems; control)) were diluted to 50 μg/ml in 10 mM acetate, pH 4.5, and coupled (3×150 μl) along separate vertical channels followed by an injection of ethanolamine (150 μl) to block the reaction spots. […]

The target in assay [2] is T1, hRYKWD.Fc. Briefly: SPRi (ProteOn XPR36, GLC chip), RWD1 immobilized, hRYKWD.Fc injected at 31.25-500 nM, 25 °C, global 1:1 Langmuir fit with mass transfer. The procedure: as §1
In another assay the target is T2, hRYK.Fc (human, UniProt P34925 26-227).
T2 construct: extracellular domain; also called hRYK.Fc.FLAG; FLAG-tagged hRYK.Fc; not shown: Fc
Put plainly: ELISA: immobilized RWD1 probed with hRYK.Fc; the concentration on the axis is that of the RWD1 used for immobilization, the hRYK.Fc concentration of this graph is not given. The procedure: Purified RWD1 antibody (20 μg) was used in immunoprecipitation experiments, to determine its ability to inhibit hRYK.Fc binding to Wnt3a.Myc5 or Wnt5a.Myc5 (10 μg and 20 μg, respectively; of transfected HEK293T cell lysate). Immunoprecipitations (IP) were performed to pull down hRYK.Fc (250 ng), then immunoblotted (IB) with an anti-Myc tag antibody to detect Wnt binding. Molecular mass standards are shown at the left in kDa. IgG, normal human IgG. (B) ELISA results of immobilized RWD1 antibody probed with hRYK.Fc protein. […] Results represent the mean±standard deviation of two to three independent experiments. IgG, normal human IgG; OD, optical density.
RYK binding was determined by ELISA as described previously (Davydova N, et al., 2011, J Mol Biol 407: 581-593), using bound RWD1 and probed with purified hRYK.Fc. All SPRi analyses were performed at 25° C. using HBST (10 mM HEPES, pH 7.4, 150 mM NaCl, 0.05% (v/v) Tween-20) as the running buffer. A ProteOn XPR36 SPRi biosensor, GLC sensor chips and coupling reagents (10 mM sodium acetate, pH 4.5; sulfo-N-hydroxysuccinimide (SNHS); 1-ethyl-3-(3-dimethylaminopropyl)-carbodiimide hydrochloride (EDC); and ethanolamine) were purchased from Bio-Rad Laboratories. All antibodies and ligands used for kinetic analysis were buffer exchanged with PBS. Immobilizations were performed at 30 μl/min on the GLC chip. […]
In general terms: An ELISA detects its analyte on a solid surface through an enzyme-linked reagent.

T1 sequence (P34925 66-194 limits assumed): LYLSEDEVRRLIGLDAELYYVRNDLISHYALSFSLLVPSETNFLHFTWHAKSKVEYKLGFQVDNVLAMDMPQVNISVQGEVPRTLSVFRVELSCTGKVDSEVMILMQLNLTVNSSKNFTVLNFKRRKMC
T2 sequence (P34925 26-227): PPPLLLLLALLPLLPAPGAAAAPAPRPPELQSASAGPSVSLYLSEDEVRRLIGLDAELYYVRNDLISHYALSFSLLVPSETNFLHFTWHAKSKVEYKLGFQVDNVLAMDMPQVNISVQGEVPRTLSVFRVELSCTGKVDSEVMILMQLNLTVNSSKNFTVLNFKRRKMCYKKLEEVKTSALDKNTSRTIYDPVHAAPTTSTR

B1: RWD1 (antibody, human IgG1, kappa, V domains shown)
VH: EVQLLESGGGLVQPGGSLRLSCAASGFTFSSYAMSWVRQAPGKGLEWVSLIHKAGHTTQYADSVKGRFTISRDNSKNTLYLQMNSLRAEDTAVYYCAKGYRHFDYWGQGTLVTVSS
VL: DIQMTQSPSSLSASVGDRVAITCRASQSISSYLNWYQQKPGKAPKLLIYRASNLQSGVPSRFSGSGSGTDFTLTISSLQPEDFATYYCQQAVGSPRTFGQGTKVEIKR
notes: Variable regions of scFv3 grafted onto a human IgG1 gamma heavy chain and human kappa light chain; fully human monoclonal antibody; also called RWD1 antibody
Broadly, the Kd is the equilibrium constant for the complex coming apart. Usually koff stands for the first-order rate constant of dissociation. Low values mean a long-lived complex, high ones a short-lived complex. Broadly, the kon is a measure of how fast the partners come together. A word on the EC50 (read off the curve): it is the midpoint of the concentration-response curve. Low values mean an effect from little substance, high ones a need for much substance. For the molecule B1, in the assay with hRYKWD.Fc [1], the Kd was 4.2 nM. Moreover, in the assay with hRYKWD.Fc [2], the dissociation rate constant (koff) was 0.00037 s⁻¹ and the kon was found to be 88000 M⁻¹ s⁻¹. Besides, the “EC50 (read off the curve)” value with hRYK.Fc was around 5 µg/mL.

The record behind these values is patent US20160053022A1 (PETER MACCALLUM CANCER INSTITUTE, published 2016).
